From US20230192794A1

Biological target: IL10Rβ on human cell lines (HT-29, HEK-293T) (human (cells stated as human)) (UniProt Q08334)
Experiment: cell-based or functional assay

Chain of IL10Rβ on human cell lines (HT-29, HEK-293T) (human (cells stated as human)) (Q08334 20-325): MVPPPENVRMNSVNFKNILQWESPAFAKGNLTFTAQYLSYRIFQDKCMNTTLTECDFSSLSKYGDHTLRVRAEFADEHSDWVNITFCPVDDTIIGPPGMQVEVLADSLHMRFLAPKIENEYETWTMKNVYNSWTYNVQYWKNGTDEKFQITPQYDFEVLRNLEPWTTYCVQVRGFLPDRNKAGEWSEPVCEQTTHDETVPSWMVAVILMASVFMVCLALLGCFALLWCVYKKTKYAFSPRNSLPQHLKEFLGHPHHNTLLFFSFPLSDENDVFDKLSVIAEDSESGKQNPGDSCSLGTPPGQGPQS

Emax for STAT1 (phospho-Y701-STAT1) in HT-29 cells, phospho-flow (% of the WT IL-22 Emax): 30
Emax for STAT3 (phospho-Y705-STAT3) in HT-29 cells, phospho-flow (% of the WT IL-22 Emax): 100
Substance: 22-B3 (mouse IL-22 S45E/Q116A/K124A/Q128A) (from UniProt Q9JJY9 34-179) (ligand)
